Tests used:
[1] = test system: HeLa Kyoto; assay: solubility in G1/S (NP-40 vs SDS abundance) (log2 ratio); higher = more soluble; settings: cell cycle stage: G1/S
[2] = test system: HeLa Kyoto; assay: thermal stability score vs G1/S (z-score of summed log2 fold changes over temperatures); higher = more thermally stable than in G1/S
[3] = test system: HeLa Kyoto; assay: melting temperature (median over replicates), in situ; higher = more thermally stable
[4] = test system: HeLa Kyoto; assay: solubility change mitosis vs G1/S (difference of NP-40 vs SDS log2 ratios) (log2 ratio difference); higher = more soluble in mitosis
[5] = cell cycle stage: early G1 (4.5 h after nocodazole release)
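Wherever melting temperature (median over replicates), in situ is given: HeLa Kyoto cells synchronized by double thymidine or nocodazole block, proteins quantified by TMT10plex mass spectrometry, three independent biological replicates.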
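Wherever solubility change mitosis vs G1/S (difference of NP-40 vs SDS log2 ratios) is given: synchronized HeLa Kyoto cells (double thymidine block for G1/S, nocodazole release for mitosis), protein amounts in NP-40 versus SDS lysates quantified by mass spectrometry, three biological replicates.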
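Wherever solubility in G1/S (NP-40 vs SDS abundance) is given: HeLa Kyoto cells arrested at G1/S by double thymidine block, proteins quantified by TMT10plex mass spectrometry in mild NP-40 versus SDS extracts, three biological replicates.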
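Wherever thermal stability score vs G1/S (z-score of summed log2 fold changes over temperatures) is given: synchronized HeLa Kyoto cells, proteins quantified by TMT10plex mass spectrometry, three biological replicates, mitosis taken 0.5 h after nocodazole release, G1/S directly after double thymidine block.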

COL5A2, sequence (chain, as listed by the source): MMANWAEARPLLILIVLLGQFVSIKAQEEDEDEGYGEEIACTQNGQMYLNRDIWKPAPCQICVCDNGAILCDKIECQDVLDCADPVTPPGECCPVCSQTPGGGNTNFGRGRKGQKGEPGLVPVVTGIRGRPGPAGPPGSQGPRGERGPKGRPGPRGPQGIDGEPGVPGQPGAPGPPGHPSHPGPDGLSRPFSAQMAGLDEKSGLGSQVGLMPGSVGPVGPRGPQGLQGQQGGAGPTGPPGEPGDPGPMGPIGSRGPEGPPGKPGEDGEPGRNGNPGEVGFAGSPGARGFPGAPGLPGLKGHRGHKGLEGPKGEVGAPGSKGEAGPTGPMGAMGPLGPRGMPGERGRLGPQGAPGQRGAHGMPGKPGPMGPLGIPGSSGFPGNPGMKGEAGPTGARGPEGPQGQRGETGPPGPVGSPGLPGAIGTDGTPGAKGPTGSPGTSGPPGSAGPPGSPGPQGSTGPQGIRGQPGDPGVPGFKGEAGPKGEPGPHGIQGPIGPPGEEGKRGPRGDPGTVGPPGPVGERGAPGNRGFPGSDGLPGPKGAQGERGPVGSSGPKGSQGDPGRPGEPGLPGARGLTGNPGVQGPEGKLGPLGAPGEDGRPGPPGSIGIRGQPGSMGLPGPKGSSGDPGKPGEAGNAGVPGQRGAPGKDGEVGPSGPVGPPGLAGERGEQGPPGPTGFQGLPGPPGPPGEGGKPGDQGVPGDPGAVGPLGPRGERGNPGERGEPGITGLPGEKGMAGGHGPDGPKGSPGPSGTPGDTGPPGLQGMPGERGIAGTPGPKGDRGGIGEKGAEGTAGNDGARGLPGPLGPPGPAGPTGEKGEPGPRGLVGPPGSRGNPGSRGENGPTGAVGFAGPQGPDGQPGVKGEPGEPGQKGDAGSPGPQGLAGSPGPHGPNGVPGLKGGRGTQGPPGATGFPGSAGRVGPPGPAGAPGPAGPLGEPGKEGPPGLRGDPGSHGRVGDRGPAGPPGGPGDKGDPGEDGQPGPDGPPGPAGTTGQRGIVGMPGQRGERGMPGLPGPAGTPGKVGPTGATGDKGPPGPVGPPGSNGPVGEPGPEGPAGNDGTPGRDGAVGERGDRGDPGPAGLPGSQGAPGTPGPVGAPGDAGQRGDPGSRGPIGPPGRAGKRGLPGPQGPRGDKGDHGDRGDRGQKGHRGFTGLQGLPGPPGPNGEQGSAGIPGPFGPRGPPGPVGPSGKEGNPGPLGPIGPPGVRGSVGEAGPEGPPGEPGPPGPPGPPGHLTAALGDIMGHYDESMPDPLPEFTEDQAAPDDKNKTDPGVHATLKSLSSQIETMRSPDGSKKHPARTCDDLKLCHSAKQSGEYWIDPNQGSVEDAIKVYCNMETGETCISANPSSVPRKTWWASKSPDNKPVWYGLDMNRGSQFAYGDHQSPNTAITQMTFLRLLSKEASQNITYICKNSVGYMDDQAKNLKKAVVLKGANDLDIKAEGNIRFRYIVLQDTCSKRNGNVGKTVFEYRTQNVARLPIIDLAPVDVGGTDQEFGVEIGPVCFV

| Substance | solubility in G1/S (log2) [1] | thermal stability score [2, 5] | thermal stability score ([2]; cell cycle stage: mitosis) | melting temperature ([3]; cell cycle stage: G1/S) [°C] | melting temperature ([3]; cell cycle stage: mitosis) [°C] | solubility change mitosis (log2) [4] |
| --- | --- | --- | --- | --- | --- | --- |
| MAAATADPGAGNPQPGDSSGGGAGGGLPSPGEQELSRRLQRLYPAVNQQETPLPRSWSPKDKYNYIGLSQGNLRVHYKGHGKNHKDAASVRATHPIPAACGIYYFEVKIVSKGRDGYMGIGLSAQGVNMNRLPGWDKHSYGYHGDDGHSFCSSGTGQPYGPTFTTGDVIGCCVNLINGTCFYTKNGHSLGIAFTDLPANLYPTVGLQTPGEIVDANFGQQPFLFDIEDYMREWRAKVQGTVHCFPISARLGEWQAVLQNMVSSYLVHHGYCATATAFARMTETPIQEEQASIKNRQKIQKLVLEGRVGEAIETTQRFYPGLLEHNPNLLFMLKCRQFVEMVNGTDSEVRSLSSRSPKSQDSYPGSPSLSPRHGPSSSHMHNTGADSPSCSNGVASTKSKQNHSKYPAPSSSSSSSSSSSSSSPSSVNYSESNSTDSTKSQHHSSTSNQETSDSEMEMEAEHYPNGVLGSMSTRIVNGAYKHEDLQTDESSMDDRHPRRQLCGGNQAATERIILFGRELQALSEQLGREYGKNLAHTEMLQDAFSLLAYSDPWSCPVGQQLDPIQREPVCAALNSAILESQNLPKQPPLMLALGQASECLRLMARAGLGSCSFARVDDYLH [RANBP10] | 0.151 | 0.428 | 0.506 | 51.4 | 51.1 | -0.193 |
| MTKSNGEEPKMGGRMERFQQGVRKRTLLAKKKVQNITKEDVKSYLFRNAFVLLTVTAVIVGTILGFTLRPYRMSYREVKYFSFPGELLMRMLQMLVLPLIISSLVTGMAALDSKASGKMGMRAVVYYMTTTIIAVVIGIIIVIIIHPGKGTKENMHREGKIVRVTAADAFLDLIRNMFPPNLVEACFKQFKTNYEKRSFKVPIQANETLVGAVINNVSEAMETLTRITEELVPVPGSVNGVNALGLVVFSMCFGFVIGNMKEQGQALREFFDSLNEAIMRLVAVIMWYAPVGILFLIAGKIVEMEDMGVIGGQLAMYTVTVIVGLLIHAVIVLPLLYFLVTRKNPWVFIGGLLQALITALGTSSSSATLPITFKCLEENNGVDKRVTRFVLPVGATINMDGTALYEALAAIFIAQVNNFELNFGQIITISITATAASIGAAGIPQAGLVTMVIVLTSVGLPTDDITLIIAVDWFLDRLRTTTNVLGDSLGAGIVEHLSRHELKNRDVEMGNSVIEENEMKKPYQLIAQDNETEKPIDSETKM [SLC1A3] | -0.131 | -4.57 | -5.19 | 61.8 | 58 | 0.0284 |
| MNSIKNVPARVLSRRPGHSLEAEREQFDKTQAISISKAINTQEAPVKEKHARRIILGTHHEKGAFTFWSYAIGLPLPSSSILSWKFCHVLHKVLRDGHPNVLHDCQRYRSNIREIGDLWGHLHDRYGQLVNVYTKLLLTKISFHLKHPQFPAGLEVTDEVLEKAAGTDVNNIFQLTVEMFDYMDCELKLSESVFRQLNTAIAVSQMSSGQCRLAPLIQVIQDCSHLYHYTVKLLFKLHSCLPADTLQGHRDRFHEQFHSLRNFFRRASDMLYFKRLIQIPRLPEGPPNFLRASALAEHIKPVVVIPEEAPEDEEPENLIEISTGPPAGEPVVVADLFDQTFGPPNGSVKDDRDLQIESLKREVEMLRSELEKIKLEAQRYIAQLKSQVNALEGELEEQRKQKQKALVDNEQLRHELAQLRAAQLEGERSQGLREEAERKASATEARYNKLKEKHSELVHVHAELLRKNADTAKQLTVTQQSQEEVARVKEQLAFQVEQVKRESELKLEEKSDQLEKLKRELEAKAGELARAQEALSHTEQSKSELSSRLDTLSAEKDALSGAVRQREADLLAAQSLVRETEAALSREQQRSSQEQGELQGRLAERESQEQGLRQRLLDEQFAVLRGAAAEAAGILQDAVSKLDDPLHLRCTSSPDYLVSRAQEALDAVSTLEEGHAQYLTSLADASALVAALTRFSHLAADTIINGGATSHLAPTDPADRLIDTCRECGARALELMGQLQDQQALRHMQASLVRTPLQGILQLGQELKPKSLDVRQEELGAVVDKEMAATSAAIEDAVRRIEDMMNQARHASSGVKLEVNERILNSCTDLMKAIRLLVTTSTSLQKEIVESGRGAATQQEFYAKNSRWTEGLISASKAVGWGATQLVEAADKVVLHTGKYEELIVCSHEIAASTAQLVAASKVKANKHSPHLSRLQECSRTVNERAANVVASTKSGQEQIEDRDTMDFSGLSLIKLKKQEMETQVRVLELEKTLEAERMRLGELRKQHYVLAGASGSPGEEVAIRPSTAPRSVTTKKPPLAQKPSVAPRQDHQLDKKDGIYPAQLVNY [HIP1R] | -0.0581 | -0.263 | 0.371 | 50 | 49.5 | -0.0177 |
| COL5A2 | -0.0207 | 2.88 | 0.949 | 54.6 | 57.9 | 0.0391 |
| MAASGAVEPGPPGAAVAPSPAPAPPPAPDHLFRPISAEDEEQQPTEIESLCMNCYCNGMTRLLLTKIPFFREIIVSSFSCEHCGWNNTEIQSAGRIQDQGVRYTLSVRALEDMNREVVKTDSAATRIPELDFEIPAFSQKGALTTVEGLITRAISGLEQDQPARRANKDATAERIDEFIVKLKELKQVASPFTLIIDDPSGNSFVENPHAPQKDDALVITHYNRTRQQEEMLGLQEEAPAEKPEEEDLRNEVLQFSTNCPECNAPAQTNMKLVQIPHFKEVIIMATNCENCGHRTNEVKSGGAVEPLGTRITLHITDASDMTRDLLKSETCSVEIPELEFELGMAVLGGKFTTLEGLLKDIRELVTKNPFTLGDSSNPGQTERLQEFSQKMDQIIEGNMKAHFIMDDPAGNSYLQNVYAPEDDPEMKVERYKRTFDQNEELGLNDMKTEGYEAGLAPQR [ZPR1] | 0.433 | -0.562 | -0.171 | 52.6 | 52.5 | -0.0376 |
| MVGYDPKPDGRNNTKFQVAVAGSVSGLVTRALISPFDVIKIRFQLQHERLSRSDPSAKYHGILQASRQILQEEGPTAFWKGHVPAQILSIGYGAVQFLSFEMLTELVHRGSVYDAREFSVHFVCGGLAACMATLTVHPVDVLRTRFAAQGEPKVYNTLRHAVGTMYRSEGPQVFYKGLAPTLIAIFPYAGLQFSCYSSLKHLYKWAIPAEGKKNENLQNLLCGSGAGVISKTLTYPLDLFKKRLQVGGFEHARAAFGQVRRYKGLMDCAKQVLQKEGALGFFKGLSPSLLKAALSTGFMFFSYEFFCNVFHCMNRTASQR [SLC25A19] | -0.155 | -0.746 | -1.27 | 56.4 | 55.6 | -0.0971 |
| MAASRWARKAVVLLCASDLLLLLLLLPPPGSCAAEGSPGTPDESTPPPRKKKKDIRDYNDADMARLLEQWEKDDDIEEGDLPEHKRPSAPVDFSKIDPSKPESILKMTKKGKTLMMFVTVSGSPTEKETEEITSLWQGSLFNANYDVQRFIVGSDRAIFMLRDGSYAWEIKDFLVGQDRCADVTLEGQVYPGKGGGSKEKNKTKQDKGKKKKEGDLKSRSSKEENRAGNKREDL [MESDC2] | 0.269 | 3.56 | 2.22 | 55.5 | 56.3 | -0.0464 |
| AGL | -0.215 | -0.229 | -0.757 | 51.1 | 50.6 | -0.204 |
| MERPQPDSMPQDLSEALKEATKEVHTQAENAEFMRNFQKGQVTRDGFKLVMASLYHIYVALEEEIERNKESPVFAPVYFPEELHRKAALEQDLAFWYGPRWQEVIPYTPAMQRYVKRLHEVGRTEPELLVAHAYTRYLGDLSGGQVLKKIAQKALDLPSSGEGLAFFTFPNIASATKFKQLYRSRMNSLEMTPAVRQRVIEEAKTAFLLNIQLFEELQELLTHDTKDQSPSRAPGLRQRASNKVQDSAPVETPRGKPPLNTRSQAPLLRWVLTLSFLVATVAVGLYAM [HMOX1] | 0.553 | 0.266 | 0.9 | 52.6 | 53.9 | -0.0689 |
| MDVLVSECSARLLQQEEEIKSLTAEIDRLKNCGCLGASPNLEQLQEENLKLKYRLNILRKSLQAERNKPTKNMINIISRLQEVFGHAIKAAYPDLENPPLLVTPSQQAKFGDYQCNSAMGISQMLKTKEQKVNPREIAENITKHLPDNECIEKVEIAGPGFINVHLRKDFVSEQLTSLLVNGVQLPALGENKKVIVDFSSPNIAKEMHVGHLRSTIIGESISRLFEFAGYDVLRLNHVGDWGTQFGMLIAHLQDKFPDYLTVSPPIGDLQVFYKESKKRFDTEEEFKKRAYQCVVLLQGKNPDITKAWKLICDVSRQELNKIYDALDVSLIERGESFYQDRMNDIVKEFEDRGFVQVDDGRKIVFVPGCSIPLTIVKSDGGYTYDTSDLAAIKQRLFEEKADMIIYVVDNGQSVHFQTIFAAAQMIGWYDPKVTRVFHAGFGVVLGEDKKKFKTRSGETVRLMDLLGEGLKRSMDKLKEKERDKVLTAEELNAAQTSVAYGCIKYADLSHNRLNDYIFSFDKMLDDRGNTAAYLLYAFTRIRSIARLANIDEEMLQKAARETKILLDHEKEWKLGRCILRFPEILQKILDDLFLHTLCDYIYELATAFTEFYDSCYCVEKDRQTGKILKVNMWRMLLCEAVAAVMAKGFDILGIKPVQRM [RARS] | -0.181 | 0.328 | 1.95 | 49 | 48.9 | -0.175 |
| MAERRRHKKRIQEVGEPSKEEKAVAKYLRFNCPTKSTNMMGHRVDYFIASKAVDCLLDSKWAKAKKGEEALFTTRESVVDYCNRLLKKQFFHRALKVMKMKYDKDIKKEKDKGKAESGKEEDKKSKKENIKDEKTKKEKEKKKDGEKEESKKEETPGTPKKKETKKKFKLEPHDDQVFLDGNEVYVWIYDPVHFKTFVMGLILVIAVIAATLFPLWPAEMRVGVYYLSVGAGCFVASILLLAVARCILFLIIWLITGGRHHFWFLPNLTADVGFIDSFRPLYTHEYKGPKADLKKDEKSETKKQQKSDSEEKSDSEKKEDEEGKVGPGNHGTEGSGGERHSDTDSDRREDDRSQHSSGNGNDFEMITKEELEQQTDGDCEEDEEEENDGETPKSSHEKS [SEC62] | -0.134 | -4.12 | -4.37 | 55.5 | 55.4 | 0.0142 |
| MTHWFHRNPLKATAPVSFNYYGVVTGPSASKICNDLRSSRARLLELFTDLSCNPEMMKNAADSYFSLLQGFINSLDESTQESKLRYIQNFKWTDTLQGQVPSAQQDAVFELISMGFNVALWYTKYASRLAGKENITEDEAKEVHRSLKIAAGIFKHLKESHLPKLITPAEKGRDLESRLIEAYVIQCQAEAQEVTIARAIELKHAPGLIAALAYETANFYQKADHTLSSLEPAYSAKWRKYLHLKMCFYTAYAYCYHGETLLASDKCGEAIRSLQEAEKLYAKAEALCKEYGETKGPGPTVKPSGHLFFRKLGNLVKNTLEKCQRENGFIYFQKIPTEAPQLELKANYGLVEPIPFEFPPTSVQWTPETLAAFDLTKRPKDDSTKPKPEEEVKPVKEPDIKPQKDTGCYIS [BROX] | 0.511 | -0.298 | 0.407 | 49.6 | 49.8 | -0.114 |
| MDLLQFLAFLFVLLLSGMGATGTLRTSLDPSLEIYKKMFEVKRREQLLALKNLAQLNDIHQQYKILDVMLKGLFKVLEDSRTVLTAADVLPDGPFPQDEKLKDAFSHVVENTAFFGDVVLRFPRIVHYYFDHNSNWNLLIRWGISFCNQTGVFNQGPHSPILSLMAQELGISEKDSNFQNPFKIDRTEFIPSTDPFQKALREEEKRRKKEEKRKEIRKGPRISRSQSEL [CCDC134] | 0.505 | 1.83 | 1.3 | 51.7 | 53.3 | 0.012 |
| MAASMCDVFSFCVGVAGRARVSVEVRFVSSAKGKGLFATQLIRKGETIFVERPLVAAQFLWNALYRYRACDHCLRALEKAEENAQRLTGKPGQVLPHPELCTVRKDLHQNCPHCQVMYCSAECRLAATEQYHQVLCPGPSQDDPLHPLNKLQEAWRSIHYPPETASIMLMARMVATVKQAKDKDRWIRLFSQFCNKTANEEEEIVHKLLGDKFKGQLELLRRLFTEALYEEAVSQWFTPDGFRSLFALVGTNGQGIGTSSLSQWVHACDTLELKPQDREQLDAFIDQLYKDIEAATGEFLNCEGSGLFVLQSCCNHSCVPNAETSFPENNFLLHVTALEDIKPGEEICISYLDCCQRERSRHSRHKILRENYLFVCSCPKCLAEADEPNVTSEEEEEEEEEEEGEPEDAELGDEMTDV [SMYD5] | -0.147 | 1.21 | -0.768 | 53.4 | 53.1 | -0.154 |
